Blank lines part the entries; values can stand above or below the molecule they belong to.
Experiments:
mouse NFS-60 cells = experiment: In vitro proliferation assay (MTT); format: cell-based; details: for EC50: NFS-60 cells, 72 hours, MTT, read-out: EC50 of stimulatory (proliferative) activity
Method: FIG. 3 illustrates the PARylated PARP1-GCSF conjugate stimulates proliferation of mouse NFS-60 cells in a dose-dependent manner. Cells were treated with various concentrations of PARylated PARP1, PARylated PARP1-GCSF conjugate, and human GCSF for 72 hours. Cell viabilities were quantified using MTT assays.
Cell lines. Mouse NFS-60 cells were grown in RPMI 1640 medium containing 10% FBS, 0.05 mM 2-mercaptoethanol and 62 ng/mL human recombinant macrophage colony stimulating factor (M-CSF). Expi293F cells were purchased from Thermo Fisher Scientific and cultured in Expi293F expression medium with shaking at a speed of 125 rpm at 37° C. and 8% CO2.
In vitro proliferation assays. Mouse NFS-60 cells were cultured in RPMI 1640 medium containing 10% FBS, 0.05 mM 2-mercapoethanol and 62 ng/ml human recombinant M-CSF. To examine the proliferative activity of PARylated PARP1-GCSF conjugate, cells were washed three times with DPBS buffer, resuspended in RPMI-1640 medium with 10% FBS and 0.05 mM 2-mercapoethanol, plated in 96-well plates (1.5×10^4 cells per well) with various concentrations of GCSF, PARylated PARP1, or PARylated PARP1-hG-CSF conjugate, and incubated for 72 hours at 37° C. with 5% CO2. Cells were then treated with 0.5 mg mL^−1 3-(4,5-dimethylthiazol-2-yl)-2,5-diphenyltetrazolium bromide (MTT) solution for 3 hours at 37° C., followed by additions of 100 μL of lysis buffer (20% SDS in 50% dimethylformamide, 0.5% (v:v) 80% acetic acid, 0.4% (v:v) 1 N HCl, pH 4.7) and incubated for 4 hours at 37° C. Fluorescence intensity measured at 595 nm is proportional to cell viability.

[1] = system: neutrophil populations in blood; experiment: In vivo efficacy: neutrophil populations in blood by flow cytometry after single s.c. dose; parameters: species or system CD1 mice; details: for neutrophil percentage reached after sharp increase: within 24 hours, from approximately 10%
Source text: FIG. 4A-C illustrates in vivo efficacy of the PARylated PARP1-GCSF conjugate. Single doses of GCSF (1.25 nmol), PARylated PARP1 (2.5 nmol) and PARylated PARP1-GCSF conjugate (0.5 or 2.5 nmol) were administrated by subcutaneous (s.c.) injections into CD1 mice (five per group). Blood was collected and analyzed for neutrophil populations by flow cytometry using fluorophore-labeled anti-mouse CD45, anti-mouse CD11b, and anti-mouse Ly-6G antibodies. (A)-(B) Neutrophil percentages in mouse blood after the single-dose treatments. For (B), 1=PBS; 2=GCSF 1.25 nmol; 3=PARylated PARP1 2.5 nmol; 4=PARylated PARP1-GCSF 0.5 nmol; 5=PARylated PARP1-GCSF 2.5 nmol. (C) Representative flow cytometric analyses of mouse neutrophil populations after treatments with 1) PBS; 2) GCSF 1.25 nmol; 3) PARylated PARP1 2.5 nmol; 4) PARylated PARP1-GCSF 0.5 nmol; and 5) PARylated PARP1-GCSF 2.5 nmol conjugate. ns=not significant, p>0.05; *, p<0.05; **, p<0.01; ***, p<0.001; ****, p<0.0001. Data for the 5 conjugates are listed for days 0, 1, 5, and 11.
Animals. Female CD-1 IGS mice (22-24 g) were purchased from Charles River Laboratories (Wilmington, MA). All animal studies were performed under a protocol approved by the Institutional Animal Care and Use Committee of the University of Southern California.
In vivo efficacy of the PARylated PARP1-GCSF conjugate. Single doses of GCSF (1.25 nmol), PARylated PARP1 (2.5 nmol), or PARylated PARP1-GCSF conjugate (0.5 or 2.5 nmol) were administrated by subcutaneous (s.c.) injections into CD1 mice (5 per group). Blood was collected at day 0 through day 13 and analyzed by flow cytometry to measure percentages of neutrophil populations in white blood cells using pacific blue anti-mouse CD45 (clone: 30-F11, BioLegend), APC anti-mouse CD11b (clone: M1/70, eBioscence, Carlsbad, CA), and FITC anti-mouse Ly-6G antibodies (clone: 1A8, BioLegend).

[2] = target: T1, GCSF receptor on mouse NFS-60 cells (mouse (NFS-60 cells)) (UniProt P40223); experiment: cell-based or functional assay
T1 sequence (looked up): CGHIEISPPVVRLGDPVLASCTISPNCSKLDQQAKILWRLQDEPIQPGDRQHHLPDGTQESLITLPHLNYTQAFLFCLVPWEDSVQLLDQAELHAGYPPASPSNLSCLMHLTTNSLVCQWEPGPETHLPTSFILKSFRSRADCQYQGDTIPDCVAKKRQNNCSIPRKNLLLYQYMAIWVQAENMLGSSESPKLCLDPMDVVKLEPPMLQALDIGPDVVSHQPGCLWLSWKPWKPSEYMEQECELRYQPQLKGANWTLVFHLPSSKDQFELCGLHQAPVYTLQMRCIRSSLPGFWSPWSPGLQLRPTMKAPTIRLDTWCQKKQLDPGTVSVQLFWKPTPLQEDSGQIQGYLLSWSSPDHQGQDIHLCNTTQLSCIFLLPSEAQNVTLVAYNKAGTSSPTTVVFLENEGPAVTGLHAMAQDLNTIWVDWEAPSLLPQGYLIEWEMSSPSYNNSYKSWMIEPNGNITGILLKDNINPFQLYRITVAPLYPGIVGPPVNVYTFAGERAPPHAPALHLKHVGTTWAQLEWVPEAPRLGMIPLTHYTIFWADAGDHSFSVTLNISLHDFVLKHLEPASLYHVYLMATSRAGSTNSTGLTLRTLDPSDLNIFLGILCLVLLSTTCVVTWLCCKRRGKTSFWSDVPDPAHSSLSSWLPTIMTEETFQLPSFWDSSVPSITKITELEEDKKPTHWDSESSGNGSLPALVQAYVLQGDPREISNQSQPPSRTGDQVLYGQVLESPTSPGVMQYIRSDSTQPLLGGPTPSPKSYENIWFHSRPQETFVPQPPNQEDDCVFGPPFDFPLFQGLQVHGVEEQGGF

[3] = target: anti-GCSF monoclonal antibody (clone: BVD13-3A5, BioLegend); experiment: sandwich ELISA, BVD13-3A5 coated, detection anti-GCSF 3D1-HRP; analyte 125 ng/mL, replicate #1
[4] = target: anti-GCSF monoclonal antibody (clone: BVD13-3A5, BioLegend); experiment: sandwich ELISA, BVD13-3A5 coated, detection anti-GCSF 3D1-HRP; analyte 125 ng/mL, replicate #2
[5] = target: anti-GCSF monoclonal antibody (clone: BVD13-3A5, BioLegend); experiment: sandwich ELISA, BVD13-3A5 coated, detection anti-GCSF 3D1-HRP; analyte 250 ng/mL, replicate #1
[6] = target: anti-GCSF monoclonal antibody (clone: BVD13-3A5, BioLegend); experiment: sandwich ELISA, BVD13-3A5 coated, detection anti-GCSF 3D1-HRP; analyte 250 ng/mL, replicate #2
[7] = target: anti-GCSF monoclonal antibody (clone: BVD13-3A5, BioLegend); experiment: sandwich ELISA, BVD13-3A5 coated, detection anti-GCSF 3D1-HRP; analyte 500 ng/mL, replicate #1
[8] = target: anti-GCSF monoclonal antibody (clone: BVD13-3A5, BioLegend); experiment: sandwich ELISA, BVD13-3A5 coated, detection anti-GCSF 3D1-HRP; analyte 500 ng/mL, replicate #2
[9] = target: anti-GCSF monoclonal antibody (clone: BVD13-3A5, BioLegend); experiment: sandwich ELISA, BVD13-3A5 coated, detection anti-GCSF 3D1-HRP; analyte 62.5 ng/mL, replicate #1
[10] = target: anti-GCSF monoclonal antibody (clone: BVD13-3A5, BioLegend); experiment: sandwich ELISA, BVD13-3A5 coated, detection anti-GCSF 3D1-HRP; analyte 62.5 ng/mL, replicate #2
[11] = target: anti-GCSF monoclonal antibody (clone: BVD13-3A5, BioLegend); experiment: sandwich ELISA, BVD13-3A5 coated, detection anti-GCSF 3D1-HRP; analyte 31.25 ng/mL, replicate #1
[12] = target: anti-GCSF monoclonal antibody (clone: BVD13-3A5, BioLegend); experiment: sandwich ELISA, BVD13-3A5 coated, detection anti-GCSF 3D1-HRP; analyte 31.25 ng/mL, replicate #2

Molecule: PARylated PARP1-GCSF conjugate: Auto-PARylated human PARP1 (3′-azido NAD+-derived PAR polymers) click-conjugated with alkyne-functionalized human GCSF, 14.0±0.5 GCSF molecules on average
EC50 (mouse NFS-60 cells): 0.00602 ± 0.00093 nM | fold increased potency versus recombinant human GCSF (mouse NFS-60 cells; ratio of EC50, NFS-60 cells): approximately 4 fold | duration of sustained elevated levels of neutrophil ([1]; conjugate 2.5 nmol): 11 days | neutrophil-stimulating activity compared with 1.25 nmol GCSF ([1]; conjugate at a dose of 0.5 nmol): comparable | neutrophil percentage reached after sharp increase [1]: ~50%

EC50, proliferation of mouse NFS-60 cells (MTT, 72 hours) [2]: 0.00602 nM | fold potency against free GCSF, proliferation of mouse NFS-60 cells [2]: 4 fold | Fluorescence Intensity [3]: 32100 | Fluorescence Intensity [4]: 44700 | Fluorescence Intensity [5]: 49400 | Fluorescence Intensity [6]: 49200 | Fluorescence Intensity [7]: 64500 | Fluorescence Intensity [8]: 64900 | Fluorescence Intensity [9]: 22800 | Fluorescence Intensity [10]: 20700 | Fluorescence Intensity [11]: 15900 | Fluorescence Intensity [12]: 15900
Molecule: PARylated PARP1-GCSF conjugate (from UniProt P09874 1-1014)

EC50, proliferation of mouse NFS-60 cells (MTT, 72 hours) [2]: 0.0248 nM | Fluorescence Intensity [3]: 42300 | Fluorescence Intensity [4]: 42700 | Fluorescence Intensity [5]: 62200 | Fluorescence Intensity [6]: 60700 | Fluorescence Intensity [7]: 75700 | Fluorescence Intensity [8]: 76500 | Fluorescence Intensity [9]: 29400 | Fluorescence Intensity [10]: 29800 | Fluorescence Intensity [11]: 19900 | Fluorescence Intensity [12]: 20700
Molecule: Recombinant human granulocyte colony-stimulating factor (GCSF) with His6 tag, expressed in Expi293F cells (from UniProt P09919 31-207) (ligand)

B1: GCSF: Recombinant human granulocyte colony-stimulating factor (His6) expressed in Expi293F cells (protein)
chain: TPLGPASSLPQSFLLKCLEQVRKIQGDGAALQEKLVSECATYKLCHPEELVLLGHSLGIPWAPLSSCPSQALQLAGCLSQLHSGLFLYQGLLQALEGISPELGPTLDTLQLDVADFATTIWQQMEELGMAPALQPTQGAMPAFASAFQRRAGGVLVASHLQSFLEVSYRVLRHLAQPHHHHHH
EC50 (mouse NFS-60 cells): 0.0248 ± 0.00321 nM | neutrophil percentage reached after sharp increase [1]: ~50%
